Results: patent US20230340106A1 (published 2023)

Assays:
[1] = molecular target: T1, human IL-2 (recombinant IL-2, Humanzyme) (human, UniProt P60568 21-153); test: SPR as in Example 1 (value as in Table 3)
T1 construct: It may include the signal peptide; also called hIL-2; interleukin-2
Description: (§1) Experiments were performed at 25° C. using a 30 μL/minute flow rate in 0.01 M HEPES pH 7.4, 0.15 M NaCl and 0.005% v/v surfactant P20 (HBS-P) buffer. After each cycle, the chip surface was regenerated with 3 M MgCl₂ and new antibody captured. […] Data were analyzed using the Biacore T200 Evaluation software, the signal from the adjacent control flow cell with only the capture antibody immobilized was background subtracted along with buffer only injections for each antibody. A 1:1 Langmuir binding model was used to fit all binding curves.

[2] = molecular target: T1, human IL-2 (recombinant IL-2, Humanzyme); test: SPR (Biacore T200), IgG captured by anti-human IgG, IL-2 injected, 25 C, 1:1 Langmuir fit
Description: as §1

[3] = molecular target: T1, human IL-2 (recombinant IL-2, Humanzyme); test: SPR as in Example 1 (IgG captured, IL-2 injected)
Description: as §1

[4] = molecular target: T2, recombinant cynomolgus monkey (Macaca fascicularis) IL-2 (cynomolgus monkey (Macaca fascicularis), UniProt Q29615 21-154); test: SPR, IgG captured, cyno IL-2 1-100 nM; concentration-response insufficient to calculate the affinity
T2 construct: also called cyno IL-2; cynomolgus monkey IL-2
Description: as §1
(§2) A 1:1 Langmuir binding model was used to fit binding curves or the steady-state affinity constant calculated from a concentration-response curve.

[5] = molecular target: T1, human IL-2 (recombinant IL-2, Humanzyme); test: SPR as in Example 1 (value as in Table 4)
Description: as §1

[6] = molecular target: T1, human IL-2 (recombinant IL-2, Humanzyme); test: SPR as in Example 1; reference is parental F5.1.11
Description: as §1

[7] = molecular target: T2, recombinant cynomolgus monkey (Macaca …); test: SPR, IgG captured, cyno IL-2 1-100 nM; 1:1 Langmuir fit or steady-state affinity
Description: as §1, §2

[8] = molecular target: T1, human IL-2 (recombinant IL-2, Humanzyme); test: method not stated in the sentence (presumably SPR as in Example 1)
IL-2/F5.1.11 Fab complex = IL-2/F5.1.11 Fab complex (human, UniProt P60568 21-153); test: SPR (Biacore T200), equilibrium analysis, 1-500 nM IL-2 pre-complexed with excess Fab over biotinylated IL-2Rα
Description: Experiments were performed at 25° C. using a 10 μL/minute flow rate in 10 mM HEPES (pH7.4), 150 mM NaCl and 0.005% v/v Surfactant P20 buffer. […] Data was background subtracted using the adjacent control flow cell and buffer only injections. The affinity of the interaction was calculated from concentration-response relationship at equilibrium.

d1C7/IL-2 complex = molecular target: T3, d1C7/IL-2 complex (human, UniProt P60568 21-153); test: SPR (Biacore T200), complex injected over biotinylated receptor on a streptavidin chip
T3 construct: also called clone d1C7/IL-2 complex
Description: Experiments were performed at 25° C. using a 10 μL/minute flow rate in 10 mM HEPES (pH 7.4), 150 mM NaCl and 0.005% v/v Surfactant P20 buffer. […] Data was background subtracted using the adjacent control flow cell and buffer only injections.

T1 sequence (P60568 21-153 limits assumed): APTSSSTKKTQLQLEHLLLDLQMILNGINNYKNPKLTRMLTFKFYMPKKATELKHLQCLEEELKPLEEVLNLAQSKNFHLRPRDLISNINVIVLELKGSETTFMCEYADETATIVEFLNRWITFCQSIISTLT
T2 sequence (Q29615 21-154 limits assumed): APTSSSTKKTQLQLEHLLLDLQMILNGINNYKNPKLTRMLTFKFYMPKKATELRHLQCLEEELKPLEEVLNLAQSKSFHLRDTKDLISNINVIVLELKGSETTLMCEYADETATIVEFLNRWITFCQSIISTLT
Chain of IL-2/F5.1.11 Fab complex (P60568 21-153 limits assumed, one chain of several): as the sequence (P60568 21-153 limits assumed) above
T3 sequence (P60568 21-153 limits assumed, one chain of several): as the sequence (P60568 21-153 limits assumed) above

B1: F5.1.11 (antibody, V domains shown)
VH: QLQLQESGPGLVKPSQTLSLTCTVSGGSISSGGYYWSWIRQHPGKGLEWIGYIYYSGSTYYNPSLKSRVTISVDTSKNQFSLKLSSVTAADTAVYYCARTPTVTGDWFDPWGRGTLVTVSS
VL: NFMLTQPHSVSESPGKTVTISCTRSSGSIASNYVQWYQQRPGSSPTTVIYEDNQRPSGVPDRFSGSIDSSSNSASLTISGLKTEDEADYYCQSYDSSNVVFGGGTKLTVL
Q: For B1, which Kd [1] is on record?
A: 3.12 nM

Q: What about the Kd [2] of the same binder?
A: 3.12 nM

Q: What about the koff [2] of the same binder?
A: 0.00688 s⁻¹

Q: And the kon [2]?
A: 2.21e+06 M⁻¹ s⁻¹

Q: And the Kd [3]?
A: 1.88 nM

Q: What about the koff [3] of the same binder?
A: 0.00711 s⁻¹

Q: What about the kon [3] of the same binder?
A: 3.78e+06 M⁻¹ s⁻¹

Q: Does B1 bind [4]?
A: binds

B2: F4.7.6 (antibody, V domains shown)
VH: EVQLQESGPGLVKPSQTLSLTCTVSGGSISSGGYYWSWIRQHPGKGLEWIGYIYYSGSTYYNPSLKSRVTISVDTSKNQFSLKLSSVTAADTAVYYCARTPTVTGDWFDPWGQGTLVTVSS
VL: NFMLTQPHSVSESPGKTVTISCTRSSGSIASNYVQWYQQRPGSSPTTVIYEDNQRPSGVPDRFSGSIDSSSNSASLTISGLKTEDEADYYCQSYDSSTVVFGGGTKLTVL
Q: What does the source list for B2?
A: Kd [2]: 3.03 nM; koff [2]: 0.00738 s⁻¹; kon [2]: 2.44e+06 M⁻¹ s⁻¹

B3: F4.7.062 (antibody, V domains shown)
VH: QVQLQESGPGLVKPSQTLSLTCTVSGGSISSGGYYWSWIRQHPGKGLEWIGYIYYSGSTYYNPSLKSRVTISVDTSKNQFSLKLSSVTAADTAVYYCARTPTVTGDWFDPWGQGTLVTVSS
VL: NFMLTQPHSVSESPGKTVTISCTRSSGSIASNYVQWYQQRPGSSPTTVIYEDNQRPSGVPDRFSGSIDSSSNSASLTISGLKTEDEADYYCQSYDSSNVVFGGGTKLTVL
Q: How did the Kd [2] turn out when B3 was run?
A: 1.54 nM

Q: And the koff [2]?
A: 0.0058 s⁻¹

Q: And the kon [2]?
A: 3.77e+06 M⁻¹ s⁻¹

B4: F5.1.11.02 (antibody, V domains shown)
VH: QLQLQESGPGLVKPSQTLSLTCTVSGGSISSGGYYWSWIRQHPGKGLEWIGYIYKSGSAYYSPSLKSRVTISVDTSKNQFSLKLSSVTAADTAVYYCARTPTVTGDWFDPWGRGTLVTVSS
VL: NFMLTQPHSVSESPGKTVTISCTRSSGSIASNYVQWYQQRPGSSPTTVIYEDNQRPSGVPDRFSGSIDSSSNSASLTISGLKTEDEADYYCQTYDSIDVYFGGGTKLTVL
notes: also called F5111.2; 5.1.11.2
Q: Which results are given for B4?
A: Kd [3]: 0.114 nM; koff [3]: 0.000574 s⁻¹; kon [3]: 5.05e+06 M⁻¹ s⁻¹; Kd [5]: 0.114 nM; fold increase of apparent binding affinity over parental F5.1.11 [6]: 16 fold; Kd [7]: ~211 nM

B5: F5.1.11.04 (antibody, V domains shown)
VH: QLQLQESGPGLVKPSQTLSLTCTVSGGSISSGGYYWSWIRQHPGKGLEWIGYIYYSGSNYWNPSLKSRVTISVDTSKNQFSLKLSSVTAADTAVYYCARTPTVTGDWFDPWGRGTLVTVSS
VL: NFMLTQPHSVSESPGKTVTISCTRSSGSIASNYVQWYQQRPGSSPTTVIYEDNQRPSGVPDRFSGSIDSSSNSASLTISGLKTEDEADYYCQSYDTRDVVFGGGTKLTVL
Q: Which results are given for B5?
A: Kd [3]: 0.624 nM; koff [3]: 0.000458 s⁻¹; kon [3]: 734000 M⁻¹ s⁻¹

B6: F5.1.11.08 (antibody, V domains shown)
VH: QLQLQESGPGLVKPSQTLSLTCTVSGGSISSGGYYWSWIRQHPGKGLEWIGYIYKSGSNYWNPSLKSRVTISVDTSKNQFSLKLSSVTAADTAVYYCARTPTVTGDWFDPWGRGTLVTVSS
VL: NFMLTQPHSVSESPGKTVTISCTRSSGSIASNYVQWYQQRPGSSPTTVIYEDNQRPSGVPDRFSGSIDSSSNSASLTISGLKTEDEADYYCQTYDSIDVYFGGGTKLTVL
Q: For B6, which Kd [3] is on record?
A: 0.205 nM

Q: And the koff [3]?
A: 0.000453 s⁻¹

Q: And the kon [3]?
A: 2.21e+06 M⁻¹ s⁻¹

B7: F4.7.8 (antibody, V domains shown)
VH: not shown
VL: AIQLTQSPSSLSASVGDRVTITCQASQDIFNLLNWYRQKPGKAPDLLVYRASNLETGVPSRFSGSGSGTDFTFTISSLQPEDVGTYYCQQSANLPLTFGGGTKVEIK
notes: Only the variable domains are tied to the clone
Q: What does the source list for B7?
A: Kd [1]: 13.4 nM; Kd [2]: 13.4 nM; koff [2]: 0.0031 s⁻¹; kon [2]: 231000 M⁻¹ s⁻¹; Kd [7]: 92.4 nM

B8: 16C3 (antibody, V domains shown)
VH: QVQLVQSGGGVVQPGRSLRLSCAASGFTFSNYAMNWVRQAPGKGLEWVTLISYDGSQKYYADSVKGRFTTSRDNSKNTLYLQMNSLRAEDTAVYYCARDSTTLGAFDVWGQGTMVTVSS
VL: SYELTQPPSLSVSPGQTATISCSGDAFPRKFAYWYQQKSGQAPVLVIYEDTRRPSGIPERFSGSSSGTMATLTISGAQVEDEADYFCYSTDTTGTHRVFGGGTKLTVL
Q: What does the source list for B8?
A: Kd [1]: 0.637 nM; Kd [2]: 0.637 nM; koff [2]: 0.000619 s⁻¹; kon [2]: 989000 M⁻¹ s⁻¹; Kd [7]: 0.516 nM

B9: d1C7 (antibody, V domains shown)
VH: QVQLVQSGAEVKKPGSSVKVSCKASGGTFSSYAISWVRQAPGQGLEWMGGIIPIFGTANYAQKFQGRVTITADESTSTAYMELSSLRSEDTAVYYCARVDRYYNWNYFLGSFDYWGQGTLVTVSS
VL: SYVLTQPPSVSVAPGKTARITCGGNNIRSKSVHWYQQKPGQAPVVVIYYDSDRPSGIPERISGSNSGNTATLTISRVEAGDEADYFCQVWDSSSDHHVFGGGTKLTVL
notes: Only the variable domains are tied to the clone; also called clone d1C7
Q: B9 was tested. Which Kd [1] did it give?
A: 0.536 nM

Q: What about the Kd [2] of the same binder?
A: 0.536 nM

Q: And the koff [2]?
A: 0.000607 s⁻¹

Q: And the kon [2]?
A: 1.13e+06 M⁻¹ s⁻¹

Q: What about the Kd [7] of the same binder?
A: ≥ 108 nM

B10: F5.1.9.5 (antibody, V domains shown)
VH: EVQLVESGPGLVKPSETLSLTCAVSGYSISSGYYWGWIRQPPGKGLEWIGLSYHTRSTYYDPSLKSRVTISVDTSKNQFSLKLSSVTAADTAVYYCAREAYSDRAFDIWGQGTMVTVSS
VL: NFMLTQPHSVSESPGKTITISCTRSSGSIASDYVQWYQQRPGSSPSTVIYADNQRPSEVPDRFSGSIDSSSNSASLTISGLMTEDEADYYCQSYDSNIVIFGGGTKLTVL
Q: B10 was tested. Which Kd [8] did it give?
A: 0.663 nM

Q: And the koff [8]?
A: 0.000818 s⁻¹

Q: And the kon [8]?
A: 1.23e+06 M⁻¹ s⁻¹

B11: recombinant IL-2Rα (receptor, UniProt P01589 22-213, looked up)
chain: ELCDDDPPEIPHATFKAMAYKEGTMLNCECKRGFRRIKSGSLYMLCTGNSSHSSWDNQCQCTSSATRNTTKQVTPQPEEQKERKTTEMQSPMQPVDQASLPGHCREPPPWENEATERIYHFVVGQMVYYQCVQGYRALHRGPAESVCKMTHGKTRWTQPQLICTGEMETSQFPGEEKPQASPEGRPESETSC
modifications: biotin labeled
notes: also called IL-2α; CD25
Q: B11 was tested. Which Kd (IL-2/F5.1.11 Fab complex) did it give?
A: 70.1 nM

B12: recombinant IL-2Rβ (receptor, UniProt P14784 27-239, looked up)
chain: AVNGTSQFTCFYNSRANISCVWSQDGALQDTSCQVHAWPDRRRWNQTCELLPVSQASWACNLILGAPDSQKLTTVDIVTLRVLCREGVRWRVMAIQDFKPFENLRLMAPISLQVVHVETHRCNISWEISQASHYFERHLEFEARTLSPGHTWEEAPLLTLKQKQEWICLETLTPDTQYEFQVRVKPLQGEFTTWSPWSQPLAFRTKPAALGKD
modifications: biotin labeled
notes: also called CD122; IL2Rb
Q: Does B12 bind (d1C7/IL-2 complex)?
A: no binding
